Data from the supplement of paper PMC10567573.

B1: CHCHD3 (parent)
chain: YSGAYGASVSDEELKRRVAEELAL
B2: VPS39 (parent)
chain: TTLLKCYLHTNVALVAPLLRLENN

Variants of: B1
Assay: protein stability index of a GFP-peptide fusion (GPS, HEK-293T) (PSI 1-6); higher = more stable
Conditions: c terminus: a fixed tail appended
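Further: lentivirally expressed fusions sorted by FACS into six bins by GFP to DsRed ratio, PSI derived from sequencing read proportions per bin multiplied by bin number.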

Variant	protein stability index
YPGAYGASVSDEELKRRVAEELAL [S2P]	3.22
YHGAYGASVSDEELKRRVAEELAL [S2H]	1.38
YDGAYGASVSDEELKRRVAEELAL [S2D]	5.1
YLGAYGASVSDEELKRRVAEELAL [S2L]	2.88
YEGAYGASVSDEELKRRVAEELAL [S2E]	4.78
YSTAYGASVSDEELKRRVAEELAL [G3T]	2.9
YSSAYGASVSDEELKRRVAEELAL [G3S]	3.37
YSNAYGASVSDEELKRRVAEELAL [G3N]	4.18
YSCAYGASVSDEELKRRVAEELAL [G3C]	2.73
YSGAYGASVSDMELKRRVAEELAL [E12M]	2.39
YSGAYGASVSDFELKRRVAEELAL [E12F]	2.09
YSGAYGASVSDCELKRRVAEELAL [E12C]	2.2
YSGAYGASVSDYELKRRVAEELAL [E12Y]	3.02
YSGAYGASVSDGELKRRVAEELAL [E12G]	1.82
YSGAYGASVSDHELKRRVAEELAL [E12H]	2.24
YSGAYGASVSDIELKRRVAEELAL [E12I]	2.92
YSGAYGASVMDEELKRRVAEELAL [S10M]	2.86
YSGAYGASVQDEELKRRVAEELAL [S10Q]	2.72
YSGAYGASVRDEELKRRVAEELAL [S10R]	2.66
YSGAYGASVHDEELKRRVAEELAL [S10H]	2.98
YSGAYGASVYDEELKRRVAEELAL [S10Y]	2.14
YSGAYGANVSDEELKRRVAEELAL [S8N]	3.22

Variant	protein stability index
YSGAYGAFVSDEELKRRVAEELAL [S8F]	2
YSGAYGAEVSDEELKRRVAEELAL [S8E]	3.77
YSGAYGAPVSDEELKRRVAEELAL [S8P]	2.07
YSGAYGAMVSDEELKRRVAEELAL [S8M]	3.52
YSGAYGASVSDEEAKRRVAEELAL [L14A]	1.78
YSGAYGASVSDEELKRRVAGELAL [E20G]	1.58
YSGAYGASVSDEELKRRVAFELAL [E20F]	1.99
YSGAYGASVSDEELKRRVAYELAL [E20Y]	2.27
YSGAYGASVSDEELKRRVATELAL [E20T]	2.26
DSGAYGASVSDEELKRRVAEELAL [Y1D]	5.4
CSGAYGASVSDEELKRRVAEELAL [Y1C]	3.63
NSGAYGASVSDEELKRRVAEELAL [Y1N]	4.71
YSGAYGASVSDEELKRRVAEELAS [L24S]	2.31
YSGAYGASVSDEELKRRVAEELAN [L24N]	2.54
YSGAYGASVSTEELKRRVAEELAL [D11T]	2.24
YSGAYGASVSHEELKRRVAEELAL [D11H]	2.08
YSGAYGASVSAEELKRRVAEELAL [D11A]	2.79
YSGAYGASVSCEELKRRVAEELAL [D11C]	2.39
YSGAYGASVSDEELKERVAEELAL [R16E]	2.46
YSGAYGASVSDEELKMRVAEELAL [R16M]	2.74
YSGAYGASVSDEELKRRVAEEHAL [L22H]	2.05
YSGAYGASVSDEELKRRVAEEPAL [L22P]	2.47

Variant	protein stability index
YSGAYGASVSDEELKRRVAEEDAL [L22D]	2.75
YSGAYGASVSDEELKRRVAEERAL [L22R]	3.32
YSGAYGASVSDEELKRRVAEEVAL [L22V]	3.58
YSGQYGASVSDEELKRRVAEELAL [A4Q]	2.61
YSGRYGASVSDEELKRRVAEELAL [A4R]	3.03
YSGAYHASVSDEELKRRVAEELAL [G6H]	2.3
YSGAYDASVSDEELKRRVAEELAL [G6D]	4.67
YSGAYVASVSDEELKRRVAEELAL [G6V]	2.48
YSGAYSASVSDEELKRRVAEELAL [G6S]	2.13
YSGAYTASVSDEELKRRVAEELAL [G6T]	2.11
YSGAYGFSVSDEELKRRVAEELAL [A7F]	2.58
YSGAYGCSVSDEELKRRVAEELAL [A7C]	1.72
YSGAMGASVSDEELKRRVAEELAL [Y5M]	3.73
YSGALGASVSDEELKRRVAEELAL [Y5L]	4.86
YSGAEGASVSDEELKRRVAEELAL [Y5E]	5.32
YSGAYGASVSDEELKRHVAEELAL [R17H]	2.4
YSGAYGASVSDEELKRAVAEELAL [R17A]	2.57
YSGAYGASVSDEELKRSVAEELAL [R17S]	2.52
YSGAYGASVSDEELKRGVAEELAL [R17G]	2.36
YSGAYGASVSDEELKRVVAEELAL [R17V]	2.63
YSGAYGASVSDEELKRRFAEELAL [V18F]	2.64
YSGAYGASVSDEELKRRAAEELAL [V18A]	2.42

Variant	protein stability index
YSGAYGASVSDEELSRRVAEELAL [K15S]	3.47
YSGAYGASVSDEELRRRVAEELAL [K15R]	2.84
YSGAYGASVSDEELKRRVIEELAL [A19I]	2.49
YSGAYGASVSDEELKRRVLEELAL [A19L]	3.05
YSGAYGASVSDEELKRRVYEELAL [A19Y]	2.27
YSGAYGASVSDEELKRRVSEELAL [A19S]	2.05
YSGAYGASVSDEELKRRVQEELAL [A19Q]	2.56
YSGAYGASWSDEELKRRVAEELAL [V9W]	2.71
YSGAYGASISDEELKRRVAEELAL [V9I]	2.95
YSGAYGASVSDEELKRRVAEELGL [A23G]	3.02
YSGAYGASVSDEELKRRVAEELYL [A23Y]	2.7
YSGAYGASVSDEELKRRVAEELCL [A23C]	3.08
YSGAYGASVSDEELKRRVAEELHL [A23H]	2.71
YSGAYGASVSDEELKRRVAEELIL [A23I]	2.52
YSGAYGASVSDEELKRRVAEELQL [A23Q]	2.58
YSGAYGASVSDEELKRRVAEELDL [A23D]	2.76
YSGAYGASVSDEELKRRVAEELSL [A23S]	2.19
YSGAYGASVSDESLKRRVAEELAL [E13S]	2.26
YSGAYGASVSDELLKRRVAEELAL [E13L]	2.85
YSGAYGASVSDEMLKRRVAEELAL [E13M]	1.51
YSGAYGASVSDEILKRRVAEELAL [E13I]	2.2

Variants of: B2
Assay: as above
Conditions: c terminus: a fixed tail appended

Variant	protein stability index
TTLLKCYLHLNVALVAPLLRLENN [T10L]	2.35
TTLLKCYLHGNVALVAPLLRLENN [T10G]	3.27
TTLLKCYLHHNVALVAPLLRLENN [T10H]	2.79
TTLLKCYLHWNVALVAPLLRLENN [T10W]	1.94
TTLLKCYLHENVALVAPLLRLENN [T10E]	1.46
TTLLKCYLHRNVALVAPLLRLENN [T10R]	3.11
TTLLKCYLHYNVALVAPLLRLENN [T10Y]	2.73
TTLLKAYLHTNVALVAPLLRLENN [C6A]	1.25
TTLLKEYLHTNVALVAPLLRLENN [C6E]	2.38
TTLLKLYLHTNVALVAPLLRLENN [C6L]	3.27
TTLLKPYLHTNVALVAPLLRLENN [C6P]	2.19
TTLLKKYLHTNVALVAPLLRLENN [C6K]	2.11
TTLLKQYLHTNVALVAPLLRLENN [C6Q]	3.64
TTLLKNYLHTNVALVAPLLRLENN [C6N]	1.91
TTLLKTYLHTNVALVAPLLRLENN [C6T]	2.56
TTLLKIYLHTNVALVAPLLRLENN [C6I]	1.15
TQLLKCYLHTNVALVAPLLRLENN [T2Q]	2.1
TLLLKCYLHTNVALVAPLLRLENN [T2L]	3.5
TALLKCYLHTNVALVAPLLRLENN [T2A]	1.61
TRLLKCYLHTNVALVAPLLRLENN [T2R]	2.85
TTQLKCYLHTNVALVAPLLRLENN [L3Q]	3.31
TTRLKCYLHTNVALVAPLLRLENN [L3R]	2.57
TTPLKCYLHTNVALVAPLLRLENN [L3P]	1.96
TTILKCYLHTNVALVAPLLRLENN [L3I]	2.18
TTWLKCYLHTNVALVAPLLRLENN [L3W]	3.19
TTNLKCYLHTNVALVAPLLRLENN [L3N]	3.03

Variant	protein stability index
TTKLKCYLHTNVALVAPLLRLENN [L3K]	2.1
TTALKCYLHTNVALVAPLLRLENN [L3A]	3.88
TTYLKCYLHTNVALVAPLLRLENN [L3Y]	3.01
TTGLKCYLHTNVALVAPLLRLENN [L3G]	1.84
TTTLKCYLHTNVALVAPLLRLENN [L3T]	2.58
TTDLKCYLHTNVALVAPLLRLENN [L3D]	2.22
ITLLKCYLHTNVALVAPLLRLENN [T1I]	2.46
KTLLKCYLHTNVALVAPLLRLENN [T1K]	3.52
YTLLKCYLHTNVALVAPLLRLENN [T1Y]	3.27
ATLLKCYLHTNVALVAPLLRLENN [T1A]	3.76
MTLLKCYLHTNVALVAPLLRLENN [T1M]	2.75
CTLLKCYLHTNVALVAPLLRLENN [T1C]	1.07
TTLLKCYLHTNFALVAPLLRLENN [V12F]	2.91
TTLLKCYLHTNKALVAPLLRLENN [V12K]	1.45
TTLLKCYLHTNDALVAPLLRLENN [V12D]	1.97
TTLLKCYLFTNVALVAPLLRLENN [H9F]	2.82
TTLLKCYLYTNVALVAPLLRLENN [H9Y]	1.63
TTLLKCYLTTNVALVAPLLRLENN [H9T]	3.1
TTLLKCYLNTNVALVAPLLRLENN [H9N]	3.08
TTLLKCYLPTNVALVAPLLRLENN [H9P]	1.59
TTLLKCYWHTNVALVAPLLRLENN [L8W]	2.17
TTLLKCYMHTNVALVAPLLRLENN [L8M]	4.41
TTLLKCYTHTNVALVAPLLRLENN [L8T]	2.5
TTLLKCYKHTNVALVAPLLRLENN [L8K]	1
TTLLKCYSHTNVALVAPLLRLENN [L8S]	1.44
TTLLKCYFHTNVALVAPLLRLENN [L8F]	4.45

Variant	protein stability index
TTLLKCYEHTNVALVAPLLRLENN [L8E]	1.85
TTLLKCYIHTNVALVAPLLRLENN [L8I]	3.7
TTLLKCYNHTNVALVAPLLRLENN [L8N]	1.98
TTLLKCYAHTNVALVAPLLRLENN [L8A]	2.49
TTLLKCYRHTNVALVAPLLRLENN [L8R]	2.35
TTLLKCYPHTNVALVAPLLRLENN [L8P]	1.13
TTLLKCYCHTNVALVAPLLRLENN [L8C]	1.07
TTLLKCYDHTNVALVAPLLRLENN [L8D]	1.75
TTLLKCYHHTNVALVAPLLRLENN [L8H]	1.82
TTLLKCYGHTNVALVAPLLRLENN [L8G]	1.57
TTLLKCYVHTNVALVAPLLRLENN [L8V]	2.7
TTLLKCYQHTNVALVAPLLRLENN [L8Q]	2.14
TTLLKCYLHTDVALVAPLLRLENN [N11D]	4
TTLLKCYLHTCVALVAPLLRLENN [N11C]	2.59
TTLLKCYLHTGVALVAPLLRLENN [N11G]	1.33
TTLLKCYLHTIVALVAPLLRLENN [N11I]	1.85
TTLLKCYLHTQVALVAPLLRLENN [N11Q]	4.1
TTLLKCYLHTKVALVAPLLRLENN [N11K]	2.86
TTLLKCYLHTHVALVAPLLRLENN [N11H]	3.65
TTLLTCYLHTNVALVAPLLRLENN [K5T]	2.57
TTLLNCYLHTNVALVAPLLRLENN [K5N]	2.49
TTLLHCYLHTNVALVAPLLRLENN [K5H]	2.48
TTLLPCYLHTNVALVAPLLRLENN [K5P]	1.88
TTLLECYLHTNVALVAPLLRLENN [K5E]	2.22
TTLLFCYLHTNVALVAPLLRLENN [K5F]	1.07
TTLLSCYLHTNVALVAPLLRLENN [K5S]	4.1

Variant	protein stability index
TTLLKCELHTNVALVAPLLRLENN [Y7E]	1.73
TTLLKCSLHTNVALVAPLLRLENN [Y7S]	3.15
TTLLKCVLHTNVALVAPLLRLENN [Y7V]	2.59
TTLLKCHLHTNVALVAPLLRLENN [Y7H]	3.18
TTLLKCNLHTNVALVAPLLRLENN [Y7N]	2.9
TTLLKCPLHTNVALVAPLLRLENN [Y7P]	1.7
TTLLKCDLHTNVALVAPLLRLENN [Y7D]	2.27
TTLLKCFLHTNVALVAPLLRLENN [Y7F]	2.26
TTLLKCRLHTNVALVAPLLRLENN [Y7R]	1.76
TTLNKCYLHTNVALVAPLLRLENN [L4N]	1.25
TTLGKCYLHTNVALVAPLLRLENN [L4G]	3.33
TTLWKCYLHTNVALVAPLLRLENN [L4W]	1.78
TTLSKCYLHTNVALVAPLLRLENN [L4S]	3.47
TTLTKCYLHTNVALVAPLLRLENN [L4T]	2.83
TTLVKCYLHTNVALVAPLLRLENN [L4V]	3.82
TTLFKCYLHTNVALVAPLLRLENN [L4F]	3.81
TTLDKCYLHTNVALVAPLLRLENN [L4D]	1.35
TTLRKCYLHTNVALVAPLLRLENN [L4R]	2.48
TTLMKCYLHTNVALVAPLLRLENN [L4M]	3.92
TTLPKCYLHTNVALVAPLLRLENN [L4P]	1.74
TTLHKCYLHTNVALVAPLLRLENN [L4H]	2.36
TTLQKCYLHTNVALVAPLLRLENN [L4Q]	1.92
TTLKKCYLHTNVALVAPLLRLENN [L4K]	2.01
